# According to patent US20260055201A1 (SHENGHE CHINA BIOPHARMACEUTICAL, published 2026):
# Like-named read-outs stand apart in the source and are kept apart here.
# T1: Human TNFR2 mFc (manufacturer: Kaixia, CAT: TN-HM3R2) (human, UniProt P20333 23-257)
# T1 construct: treated as one molecule; also called Human TNFR2 mFC (KaKa, CAT: TNF-HM3R2); human TNFR2 mFC protein; not shown: mFc part
# T1 sequence (looked up): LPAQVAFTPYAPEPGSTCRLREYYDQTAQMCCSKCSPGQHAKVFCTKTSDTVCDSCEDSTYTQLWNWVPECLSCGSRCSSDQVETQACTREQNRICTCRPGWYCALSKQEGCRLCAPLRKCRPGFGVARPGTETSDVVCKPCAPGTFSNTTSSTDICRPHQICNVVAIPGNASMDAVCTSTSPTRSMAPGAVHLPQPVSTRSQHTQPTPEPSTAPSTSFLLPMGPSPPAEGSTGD
# T2: Human TNFR2 His (manufacturer: SINO, CAT: 10417-H08H) (human, UniProt P20333 23-257)
# T2 construct: Bought protein; also called human TNFR2 protein; TNFR2 protein; not shown: His tag
# T2 sequence (looked up): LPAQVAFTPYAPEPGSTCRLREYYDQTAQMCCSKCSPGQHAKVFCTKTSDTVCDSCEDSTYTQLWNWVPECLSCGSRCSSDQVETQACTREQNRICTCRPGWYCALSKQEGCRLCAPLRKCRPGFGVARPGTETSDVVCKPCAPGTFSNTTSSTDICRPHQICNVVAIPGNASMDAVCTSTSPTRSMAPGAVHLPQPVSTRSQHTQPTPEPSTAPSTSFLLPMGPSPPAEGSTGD
# Columns and labels:
# [1] = target: T3, Human 4-1BB His (manufacturer: Acro, CAT: 41B-H5258) (human, UniProt Q07011 24-186); assay: ELISA, human 4-1BB His coated at 0.2 ug/mL, anti-human IgG detection, OD450
# T3 construct: Bought protein; also called human 4-1BB protein; 4-1BB protein; not shown: His tag
# Procedure: The coating solution was poured off. Each well was washed with 1×PBST at 300 μL, washed 4 times with a plate washer, and patted dry on a flat paper. It was blocked with 3% skim milk powder at 300 μL/well, and incubated at 37° C. for 1 h. The blocking solution was poured off, washed 4 times with a plate washer, and patted dry on a flat paper. Negative control and positive control were set up. […] The positive control and antibody were diluted to 10 μg/mL with 3% skim milk powder as the starting concentration, and then diluted by 3-fold gradient (11 gradients in total), and a blank well was set up and only the diluent was added. It was incubated at 37° C. for 1 h at 100 μL/well. The liquid in the well was discarded, washed 4 times with a plate washer, and patted dry on a flat paper. […] It was washed 6 times with a plate washer, and patted dry on a flat paper. TMB color developing solution was added at 100 μL/well, and wrapped with aluminum foil. Color development was performed at 37° C. in the dark for 8 min. Termination solution 1M HCl was added to terminate the color development reaction at 100 μL/well. Readings were taken at 450 nm on an ELISA reader.
# [2] = target: T1, Human TNFR2 mFc (manufacturer: Kaixia, …); assay: bridging ELISA: human TNFR2 mFc coated, antibody titrated, then human 4-1BB His 0.3 ug/mL, HRP anti-His detection, OD450
# Procedure: (§1) The coating solution was poured off. Each well was washed with 1×PBST at 300 μL, washed 4 times with a plate washer, and patted dry on a flat paper. It was blocked with 3% skim milk powder at 300 μL/well, and incubated at 37° C. for 1 h. The blocking solution was poured off, washed 4 times with a plate washer, and patted dry on a flat paper. […] Starting at 50 nM, which was used as the initial concentration for 3-fold dilution, a total of 10 gradients were diluted, and a blank well was set up and only the diluent was added. It was incubated at 37° C. for 1 h at 100 μL/well. The liquid in the well was discarded, washed 4 times with a plate washer, and patted dry on a flat paper. Human 4-1BB His (manufacturer: Acro, CAT: 41B-H5258, LOT: 198-2146F1-W6) was diluted to 0.3 μg/mL, 100 μL was added to each well, and incubated at room temperature for 1 h. […] It was washed 6 times with a plate washer, and patted dry on a flat paper. TMB color developing solution was added at 100 μL/well, and wrapped with aluminum foil. Color development was performed at 37° C. in the dark for 8 min. Termination solution 1M HCl was added to terminate the color development reaction at 100 μL/well. Readings were taken at 450 nm on an ELISA reader.
# [3] = target: T4, Human 4-1BB Fc (manufacturer: Acro, CAT: 41B-H5258) (human, UniProt Q07011 24-186); assay: bridging ELISA: human 4-1BB Fc coated, antibody titrated, then human TNFR2 His 0.3 ug/mL, HRP anti-His detection, OD450
# T4 construct: not shown: Fc part
# Procedure: as §1, with “paper.” for “paper. Human 4-1BB His (manufacturer: Acro, CAT: 41B-H5258, LOT: 198-2146F1-W6) was diluted to 0.3 μg/mL, 100 μL was added to each well, and incubated at room temperature for 1 h.”
# [4] = target: T1, Human TNFR2 mFc (manufacturer: Kaixia, …); assay: blocking ELISA: human TNFR2 mFc coated, antibody titrated together with human TNF alpha His (blocked ligand), anti-His detection, OD450
# Procedure: (§2) The coating solution was poured off. Each well was washed with 1×PBST at 300 μL, washed 4 times with a plate washer, and patted dry on a flat paper. It was blocked with 3% skim milk powder at 300 μL/well, and incubated at 37° C. for 1 h. The blocking solution was poured off, washed 4 times with a plate washer, and patted dry on a flat paper. Negative control and positive control were set up. […] The positive control and antibody were diluted diluted to 100 nM with 3% skim milk powder as the starting concentration, and then diluted by 3-fold gradient (11 gradients in total), and a blank well was set up and only the diluent was added. […] The liquid in the well was discarded, washed 4 times with a plate washer, and patted dry on a flat paper. The anti his antibody (Abcam, Cat: ab1187) was diluted with 3% skim milk powder at 1:5000, 100 μL was added to each well, and incubated at 37° C. for 1 h. It was washed 6 times with a plate washer, and patted dry on a flat paper. TMB color developing solution was added at 100 μL/well, and wrapped with aluminum foil. Color development was performed at 37° C. in the dark for 8 min. Termination solution 1M HCl was added to terminate the color development reaction at 100 μL/well. Readings were taken at 450 nm on an ELISA reader.
# [5] = target: T1, Human TNFR2 mFc (manufacturer: Kaixia, …); assay: as above; remark: listed apart in the source
# Procedure: as §2
# [6] = target: T2, Human TNFR2 His (manufacturer: SINO, …); assay: bridging flow cytometry: antibody on CCR8-CHO-K1 cells captures human TNFR2 His, FITC anti-His (PBS background 15212)
# Procedure: The cells after adding the sample were incubated at 4° C. for 60 min, and then washed twice with excess FACS buffer. Resuspended the cells in 100 μL FACS buffer and added FITC anti His tag (Abcam, Cat: ab1206) fluorescent secondary antibody carrying FITC to the sample. It was incubated for 30 min and washed twice with excess FACS buffer. Resuspended the cells in flow buffer and then detected and analyzed using a flow cytometer.
# [7] = target: T5, human CCR8 on CCR8-CHO-K1 cells (human, UniProt P51685 1-355); assay: flow cytometry on CCR8-CHO-K1 cells, APC anti-human IgG Fc secondary antibody, Average-APC
# T5 construct: CHO cells overexpressing human CCR8 by lentiviral transduction
# Procedure: The purified antibodies were diluted to 120 nM with FACS buffer, using this as the starting concentration, and then diluted by 5-fold gradient (6 gradients in total). […] The cells were incubated at 4° C. for 60 min, then washed twice with excess FACS buffer. Resuspended the cells in 100 μL FACS Buffer and Added Fluorescent Secondary antibody APC (Biolegend, Cat: 109306) against human IgG FC to the sample. It was incubated for 30 min and washed twice with excess FACS buffer. Resuspended the cells in flow buffer and then detected and analyzed using a flow cytometer.
# T3 sequence (Q07011 24-186 limits assumed): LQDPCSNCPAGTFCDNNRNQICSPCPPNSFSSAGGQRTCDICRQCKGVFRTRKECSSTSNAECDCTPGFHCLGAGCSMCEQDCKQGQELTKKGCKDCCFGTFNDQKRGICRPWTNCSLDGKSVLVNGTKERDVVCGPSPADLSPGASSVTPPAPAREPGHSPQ
# T4 sequence (Q07011 24-186 limits assumed): as above
binder,measurement,setting,value
"TB-C1 (bispecific antibody, human IgG1, kappa, also called antibody TB-C1) light: DIQMTQSPSSLSASLGDRVTISCSASQGISNYLNWYQQKPDGTVKLLIYYTSTLHSGVPSRFSGSGSGTDYTLTISSLQPEDIATYYCQQYSKLPWTFGGGTKLEIKRTVAAPSVFIFPPSDEQLKSGTASVVCLLNNFYPREAKVQWKVDNALQSGNSQESVTEQDSKDSTYSLSSTLTLSKADYEKHKVYACEVTHQGLSSPVTKSFNRGEC heavy: not shown",EC50 (read off the curve),[1],~0.1 nM
same,EC50 (read off the curve),[2],~0.06 nM
"TB-A (bispecific antibody, human IgG1, kappa, also called antibody TB-A) light: DIQMTQSPSSLSASLGDRVTISCSASQGISNYLNWYQQKPDGTVKLLIYYTSTLHSGVPSRFSGSGSGTDYTLTISSLQPEDIATYYCQQYSKLPWTFGGGTKLEIKRTVAAPSVFIFPPSDEQLKSGTASVVCLLNNFYPREAKVQWKVDNALQSGNSQESVTEQDSKDSTYSLSSTLTLSKADYEKHKVYACEVTHQGLSSPVTKSFNRGEC heavy: not shown",EC50 (read off the curve),[3],~0.6 nM
"Positive control (anti-TNFR2; antibody sequence variable region consists of SEQ ID NO: 25) (VHH, not shown: a dimerising Fc or GST, also called positive control 2) VHH: EVQLVESGGGLVQPGGSLRLSCAASGSRLDYYAVAWFRQAPGKEREEVSCITYSGGSTNYAESVKGRFTISRDNSKNTLYLQMNSLRAEDTAVYYCTTEPYGSSCPLSGYDTWGQGTLVTVSS",IC50 (read off the curve),[4],~2 nM
same,IC50 (read off the curve),[5],~2 nM
"TR-H (bispecific antibody, human IgG1, kappa, also called antibody TR-H) light: EVQLVESGGGLVQPGGSLRLSCAASGSRLDYYAVAWFRQAPGKEREEVSCITYSGGSTNYAESVKGRFTISRDNSKNTLYLQMNSLRAEDTAVYYCTTEPYGSSCPLSGYDTWGQGTLVTVSSGGGGSGGGGSGGGGSDIVMTQSPPTLSLSPGERATLSCRSSKSLLHSNGNTYLYWFQQKPGQSPQLLIYRMSNLASGIPDRFSGSGSGTDFTLTISRLEPEDFAVYYCMQHLEYPFTFGQGTKLEIKRTVAAPSVFIFPPSDEQLKSGTASVVCLLNNFYPREAKVQWKVDNALQSGNSQESVTEQDSKDSTYSLSSTLTLSKADYEKHKVYACEVTHQGLSSPVTKSFNRGEC heavy: not shown",Average FITC-A,[6],34200
same,binding result,[7],binds
same,IC50 (read off the curve),[5],~3 nM
